Reference: PMC8072984, “Engineering of Saposin C Protein Chimeras for Enhanced Cytotoxicity and Optimized Liposome Binding Capability” (Pharmaceutics, 2021)

Target: T1, Human Bcl-xL-ΔTM (native amino acid sequence without the transmembrane domain) (human)
T1 construct: ~24.5 kDa; Unlabeled in the NMR titration; source: cloned into pET21a; not shown: His6, N-terminal, kept
Assay: NMR titration; [1H-15N]-SOFAST-HMQC at 298 K, 600 MHz; 15N-labelled chimera at 100 µM mixed with unlabeled Bcl-xL-ΔTM (stock 900 µM, pH 6.8) at chimera:Bcl-xL molar ratios 1:0, 1:0.5, 1:1, 1:2; 10% D2O; slow exchange, the upper limit of KD estimated from the chemical shift difference assuming diffusion-controlled kon
Conditions: both partners purified

Kd: < 49 nM
koff: < 49 s⁻¹
B1: sapC-PUMA chimera (saposin C linked to the BH3 domain of PUMA) (other)
chain: SDVYCEVCEFLVKEVTKLIDNNKTEKEILDAFDKMCSKLPKSLSEECQEVVDTYGSSILSILLEEVSPELVCSMLHLCSGGGGEEQWAREIGAQLRRMADDLNAQYER
modifications: Three disulfide bonds in the sapC part. Chimera numbering of sapC + 307 = P07602 numbering (S4-G83 = 311-390). Vector residues 1-3 (letters only in Figure 2) and the C-terminal thrombin-site remnant …
